T1: recombinant human IL-13 receptor alpha 2 (hIL-13-Rα2) (human, UniProt Q14627 27-343)
T1 construct: Recombinant soluble antigen coated on ELISA plates or used in Biacore; also called rec hIL-13Rα2; rhIL-13Rα2
T1 sequence (looked up): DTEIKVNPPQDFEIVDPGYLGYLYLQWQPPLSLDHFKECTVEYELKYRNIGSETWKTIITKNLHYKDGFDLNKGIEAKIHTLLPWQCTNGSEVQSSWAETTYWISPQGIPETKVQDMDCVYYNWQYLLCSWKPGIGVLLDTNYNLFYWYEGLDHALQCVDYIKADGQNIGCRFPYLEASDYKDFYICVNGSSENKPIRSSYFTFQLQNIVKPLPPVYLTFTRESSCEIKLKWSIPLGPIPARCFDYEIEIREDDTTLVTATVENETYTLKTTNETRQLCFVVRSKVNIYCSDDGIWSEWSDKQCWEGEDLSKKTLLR


How the values were obtained:
[1] = target: T1, recombinant human IL-13 receptor alpha …; test: competition ELISA on hIL-13-Rα2, competitor biotinylated ch08
Description: The binding properties of the cysteine mutants to hIL-13-Rα2 were evaluated by a standard ELISA and a competition ELISA. […] This conclusion was confirmed by a competition ELISA with biotinylated ch08.

[2] = target: T1, recombinant human IL-13 receptor alpha …; test: standard ELISA on hIL-13-Rα2 (given as ED50)
[3] = target: T1, recombinant human IL-13 receptor alpha …; test: competition ELISA on coated recombinant hIL-13-Rα2, competitor biotin-ch08
Description: A competition ELISA was performed to assess whether hu08 1.0 and hu08 v1.1 compete with ch08 for IL-13-Rα2 binding. Recombinant hIL-13-Rα2 was coated onto 96-well plates at 50 ul of […] in PBS overnight at 4° C. Plates were then blocked and washed following standard ELISA protocol. A 3-fold serially diluted ch08, hu08 1.0 and hu08 v1.1, and negative control ch07 (2× final concentration) were mixed with biotinylated ch08 (2×EC₅₀). 50 μl of the antibody and biotin-ch08 mixture were added to the plate and incubated for 1 hour at room temperature. The amount of biotin-ch08 bound was detected by HRP conjugated streptavidin.

[4] = target: T1, recombinant human IL-13 receptor alpha …; test: direct ELISA on coated recombinant hIL-13-Rα2
Description: Humanized hu08 binding to recombinant hIL-13-Rα2 was evaluated by a standard direct ELISA. Recombinant hIL-13-Rα2 was coated onto a 96-well plate. Serially diluted chimeric antibodies or humanized antibodies in combinations of heavy and light chains of versions 1.0 and 1.1 e.g. hu08 v1.0 HC/1.0 LC, hu08 v1.0 HC/v1.1 LC, hu08 v1.1 HC/v1.0 LC, and hu08 v1.1 HC/v1.1 LC, were added to the plate and incubated at room temperature for 1-2 hours. The binding was detected by HRP conjugated goat anti-human Ig Kappa.

[5] = target: T1, recombinant human IL-13 receptor alpha …; test: competition ELISA on plate (recombinant IL-13-Rα2), competitor biotinylated ch07
[6] = target: T1, recombinant human IL-13 receptor alpha …; test: direct ELISA on rhIL-13Rα2 (given as ED50)

| Binder | IC50 [1] [nM] | EC50 [2] [nM] | further results |
| --- | --- | --- | --- |
| hu08 with light chain mutation D185A (hu08MAC, unconjugated) (antibody, also called hu08/kD185A) heavy: not shown light: DIQMTQSPSSLSASVGDRVTITCKASQDVGTAVAWYQQKPGKAPKLLIYSASYRSTGVPSRFSGSGSGTDFTLTISSLQPEDFATYYCQHHYSAPWTFGGGTKVEIKRTVAAPSVFIFPPSDEQLKSGTASVVCLLNNFYPREAKVQWKVDNALQSGNSQESVTEQDSKDSTYSLSSTLTLSKAAYEKHKVYACEVTHQGLSSPVTKSFNRGEC | 2.36 | 0.108 | – |
| hu08v1.0/1.0-L443C/A111C (antibody, also called hu08/L443C/kA111C; L443C/kA111C) heavy: not shown light: DIQMTQSPSSLSASVGDRVTITCKASQDVGTAVAWYQQKPGKAPKLLIYSASYRSTGVPSRFSGSGSGTDFTLTISSLQPEDFATYYCQHHYSAPWTFGGGTKVEIKRTVACPSVFIFPPSDEQLKSGTASVVCLLNNFYPREAKVQWKVDNALQSGNSQESVTEQDSKDSTYSLSSTLTLSKADYEKHKVYACEVTHQGLSSPVTKSFNRGEC | 2.32 | 0.12 | – |
| hu08v1.0/1.0-K183C (antibody, human IgG1, kappa, also called hu08/kK183C; kK183C) heavy: not shown light: DIQMTQSPSSLSASVGDRVTITCKASQDVGTAVAWYQQKPGKAPKLLIYSASYRSTGVPSRFSGSGSGTDFTLTISSLQPEDFATYYCQHHYSAPWTFGGGTKVEIKRTVAAPSVFIFPPSDEQLKSGTASVVCLLNNFYPREAKVQWKVDNALQSGNSQESVTEQDSKDSTYSLSSTLTLSCADYEKHKVYACEVTHQGLSSPVTKSFNRGEC | 2.47 | 0.11 | – |
| hu08v1.0/1.0-L443C (antibody, also called hu08/L443C) heavy: not shown light: DIQMTQSPSSLSASVGDRVTITCKASQDVGTAVAWYQQKPGKAPKLLIYSASYRSTGVPSRFSGSGSGTDFTLTISSLQPEDFATYYCQHHYSAPWTFGGGTKVEIKRTVAAPSVFIFPPSDEQLKSGTASVVCLLNNFYPREAKVQWKVDNALQSGNSQESVTEQDSKDSTYSLSSTLTLSKADYEKHKVYACEVTHQGLSSPVTKSFNRGEC | 2.25 | 0.1 | – |
| hu08v1.0/1.0-K392C/L443C (antibody, also called hu08/L443C/K392C; L443C/K392C) heavy: not shown light: DIQMTQSPSSLSASVGDRVTITCKASQDVGTAVAWYQQKPGKAPKLLIYSASYRSTGVPSRFSGSGSGTDFTLTISSLQPEDFATYYCQHHYSAPWTFGGGTKVEIKRTVAAPSVFIFPPSDEQLKSGTASVVCLLNNFYPREAKVQWKVDNALQSGNSQESVTEQDSKDSTYSLSSTLTLSKADYEKHKVYACEVTHQGLSSPVTKSFNRGEC | 2.1 | 0.09 | – |
| hu08v1.0/1.0-K188C (antibody, human IgG1, kappa, also called hu08/kK188C; kK188C) heavy: not shown light: DIQMTQSPSSLSASVGDRVTITCKASQDVGTAVAWYQQKPGKAPKLLIYSASYRSTGVPSRFSGSGSGTDFTLTISSLQPEDFATYYCQHHYSAPWTFGGGTKVEIKRTVAAPSVFIFPPSDEQLKSGTASVVCLLNNFYPREAKVQWKVDNALQSGNSQESVTEQDSKDSTYSLSSTLTLSKADYECHKVYACEVTHQGLSSPVTKSFNRGEC | 2.73 | 0.18 | – |
| hu08v1.0/1.0-A111C (antibody, also called hu08/kA111C; kA111C) heavy: not shown light: DIQMTQSPSSLSASVGDRVTITCKASQDVGTAVAWYQQKPGKAPKLLIYSASYRSTGVPSRFSGSGSGTDFTLTISSLQPEDFATYYCQHHYSAPWTFGGGTKVEIKRTVACPSVFIFPPSDEQLKSGTASVVCLLNNFYPREAKVQWKVDNALQSGNSQESVTEQDSKDSTYSLSSTLTLSKADYEKHKVYACEVTHQGLSSPVTKSFNRGEC | 4.07 | 0.22 | – |
| humanized antibody hu08 v1.0 HC/v1.1 LC (antibody, IgG1, V domains shown, hIgG1 constant region and hIgKappa constant region; also called hu08 v1.0/1.1) VH: EVQLVESGGGLVQPGGSLRLSCAASGFTFSRNGMSWVRQAPGKGLEWVATVSSGGSYIYYADSVKGRFTISRDNAKNSLYLQMNSLRAEDTAVYYCARQGTTALATRFFDVWGQGTLVTVSS VL: DIQMTQSPSSLSASVGDRVTITCKASQDVGTAVAWYQQIPGKAPKLLIYSASYRSTGVPDRFSGSGSGTDFSFIISSLQPEDFATYYCQHHYSAPWTFGGGTKVEIK | – | – | IC50 [3]: 2.14 nM; EC50 [4]: 0.143 nM |
| humanized antibody hu08 v1.1 HC/v1.0 LC (antibody, IgG1, V domains shown, hIgG1 constant region and hIgKappa constant region; also called hu08 v1.1/1.0) VH: EVQLVESGGGLVQPGGSLRLSCAASGFTFSRNGMSWVRQTPDKRLEWVATVSSGGSYIYYADSVKGRFTISRDNAKNSLYLQMSSLRAEDTAVYYCARQGTTALATRFFDVWGQGTLVTVSS VL: DIQMTQSPSSLSASVGDRVTITCKASQDVGTAVAWYQQKPGKAPKLLIYSASYRSTGVPSRFSGSGSGTDFTLTISSLQPEDFATYYCQHHYSAPWTFGGGTKVEIK | – | – | IC50 [3]: 2.56 nM; EC50 [4]: 0.163 nM |
| hu07 heavy chain v1.5 paired with chimeric light chain (antibody, V domains shown, hIgG1 constant region; the chimeric light chain is the mu07 VL with human kappa constant region; also called hu07v1.5/kc; hu07 v1.5 paired with chimeric light chain Kc) VH: EVQLVESGGGLVQPGGSLRLSCAASGFSLTKYGVHWVRQAPGKGLEWVGVKWAGGSTDYNSALMSRFTISKDNAKNSLYLQMNSLRAEDTAVYYCARDHRDAMDYWGQGTLVTVSS VL: QVVLTQSPAIMSASPGERVTMTCTASLSVSSTYLHWYHQKPGSSPKLWIYSTSNLASGVPARFSGSGSGTSYSLTISSMEAEDAATYYCHQYHRSPLTFGSGTKLELK | – | – | IC50 [5]: 3.03 nM; EC50 [6]: 0.183 nM |
| hu07 heavy chain v1.5 / light chain v1.1 (antibody, IgG1, V domains shown, hIgG1 constant region and hIg Kappa constant region; also called hu07v1.5/v1.1) VH: EVQLVESGGGLVQPGGSLRLSCAASGFSLTKYGVHWVRQAPGKGLEWVGVKWAGGSTDYNSALMSRFTISKDNAKNSLYLQMNSLRAEDTAVYYCARDHRDAMDYWGQGTLVTVSS VL: DIQMTQSPSSLSASVGDRVTITCTASLSVSSTYLHWYQQKPGSSPKLLIYSTSNLASGVPSRFSGSGSGTSFTLTISSLQPEDFATYYCHQYHRSPLTFGGGTKVEIK | – | – | IC50 [5]: 46.6 nM; EC50 [6]: 1.21 nM |

Second part, led by results:

| IC50 [1] [nM] | EC50 [2] [nM] | Binder | further results |
| --- | --- | --- | --- |
| 2.07 | 0.1 | hu08v1.0/1.0-Q347C (antibody, also called hu08/Q347C) heavy: not shown light: DIQMTQSPSSLSASVGDRVTITCKASQDVGTAVAWYQQKPGKAPKLLIYSASYRSTGVPSRFSGSGSGTDFTLTISSLQPEDFATYYCQHHYSAPWTFGGGTKVEIKRTVAAPSVFIFPPSDEQLKSGTASVVCLLNNFYPREAKVQWKVDNALQSGNSQESVTEQDSKDSTYSLSSTLTLSKADYEKHKVYACEVTHQGLSSPVTKSFNRGEC | – |
| 2.17 | 0.09 | hu08v1.0/1.0-V422C/L443C (antibody, also called hu08/L443C/V422C; L443C/V422C) heavy: not shown light: DIQMTQSPSSLSASVGDRVTITCKASQDVGTAVAWYQQKPGKAPKLLIYSASYRSTGVPSRFSGSGSGTDFTLTISSLQPEDFATYYCQHHYSAPWTFGGGTKVEIKRTVAAPSVFIFPPSDEQLKSGTASVVCLLNNFYPREAKVQWKVDNALQSGNSQESVTEQDSKDSTYSLSSTLTLSKADYEKHKVYACEVTHQGLSSPVTKSFNRGEC | – |
| 2.45 | 0.11 | hu08v1.0/1.0-L443C/K183C (antibody, also called hu08/L443C/kK183C; L443C/kK183C) heavy: not shown light: DIQMTQSPSSLSASVGDRVTITCKASQDVGTAVAWYQQKPGKAPKLLIYSASYRSTGVPSRFSGSGSGTDFTLTISSLQPEDFATYYCQHHYSAPWTFGGGTKVEIKRTVAAPSVFIFPPSDEQLKSGTASVVCLLNNFYPREAKVQWKVDNALQSGNSQESVTEQDSKDSTYSLSSTLTLSCADYEKHKVYACEVTHQGLSSPVTKSFNRGEC | – |
| 2.44 | 0.1 | hu08v1.0/1.0-Q347C/A111C (antibody, also called hu08/Q347C/kA111C; Q347C/kA111C) heavy: not shown light: DIQMTQSPSSLSASVGDRVTITCKASQDVGTAVAWYQQKPGKAPKLLIYSASYRSTGVPSRFSGSGSGTDFTLTISSLQPEDFATYYCQHHYSAPWTFGGGTKVEIKRTVACPSVFIFPPSDEQLKSGTASVVCLLNNFYPREAKVQWKVDNALQSGNSQESVTEQDSKDSTYSLSSTLTLSKADYEKHKVYACEVTHQGLSSPVTKSFNRGEC | – |
| 2.41 | 0.13 | hu08v1.0/1.0-Q347C/K183C (antibody, human IgG1, kappa, also called hu08/Q347C/kK183C; Q347C/kK183C) heavy: not shown light: DIQMTQSPSSLSASVGDRVTITCKASQDVGTAVAWYQQKPGKAPKLLIYSASYRSTGVPSRFSGSGSGTDFTLTISSLQPEDFATYYCQHHYSAPWTFGGGTKVEIKRTVAAPSVFIFPPSDEQLKSGTASVVCLLNNFYPREAKVQWKVDNALQSGNSQESVTEQDSKDSTYSLSSTLTLSCADYEKHKVYACEVTHQGLSSPVTKSFNRGEC | – |

— patent US20150266962A1 (Pfizer, published 2015)
